Columns and labels:
Kap95p = target: T1, Kap95p (S. cerevisiae, UniProt Q06142 1-861); experiment: ITC
T1 sequence (looked up): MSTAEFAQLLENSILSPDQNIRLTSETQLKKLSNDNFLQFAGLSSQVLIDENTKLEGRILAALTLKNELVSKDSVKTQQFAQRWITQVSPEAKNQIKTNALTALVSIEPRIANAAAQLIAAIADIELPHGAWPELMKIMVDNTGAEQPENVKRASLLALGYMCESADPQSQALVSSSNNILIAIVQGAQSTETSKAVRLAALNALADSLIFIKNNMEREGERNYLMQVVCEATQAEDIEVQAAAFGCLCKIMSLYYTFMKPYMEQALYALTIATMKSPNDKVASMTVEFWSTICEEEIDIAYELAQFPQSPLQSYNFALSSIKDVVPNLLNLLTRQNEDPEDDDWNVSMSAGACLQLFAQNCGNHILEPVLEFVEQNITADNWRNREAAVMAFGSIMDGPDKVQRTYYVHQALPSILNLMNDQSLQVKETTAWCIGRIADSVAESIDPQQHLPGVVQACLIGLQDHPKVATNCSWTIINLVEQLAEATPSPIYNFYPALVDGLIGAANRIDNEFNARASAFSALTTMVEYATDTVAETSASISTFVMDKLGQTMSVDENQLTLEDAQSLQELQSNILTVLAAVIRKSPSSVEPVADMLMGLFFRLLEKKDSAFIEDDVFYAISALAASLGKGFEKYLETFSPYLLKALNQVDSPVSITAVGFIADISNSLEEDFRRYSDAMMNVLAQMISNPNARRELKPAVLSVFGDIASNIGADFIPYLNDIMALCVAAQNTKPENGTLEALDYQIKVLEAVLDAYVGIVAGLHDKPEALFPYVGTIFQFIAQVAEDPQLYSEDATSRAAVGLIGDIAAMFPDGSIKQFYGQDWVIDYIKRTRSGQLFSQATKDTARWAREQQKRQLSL

Kap121p = target: T2, Kap121p (S. cerevisiae, UniProt P32337 1-1089); experiment: ITC
T2 sequence (looked up): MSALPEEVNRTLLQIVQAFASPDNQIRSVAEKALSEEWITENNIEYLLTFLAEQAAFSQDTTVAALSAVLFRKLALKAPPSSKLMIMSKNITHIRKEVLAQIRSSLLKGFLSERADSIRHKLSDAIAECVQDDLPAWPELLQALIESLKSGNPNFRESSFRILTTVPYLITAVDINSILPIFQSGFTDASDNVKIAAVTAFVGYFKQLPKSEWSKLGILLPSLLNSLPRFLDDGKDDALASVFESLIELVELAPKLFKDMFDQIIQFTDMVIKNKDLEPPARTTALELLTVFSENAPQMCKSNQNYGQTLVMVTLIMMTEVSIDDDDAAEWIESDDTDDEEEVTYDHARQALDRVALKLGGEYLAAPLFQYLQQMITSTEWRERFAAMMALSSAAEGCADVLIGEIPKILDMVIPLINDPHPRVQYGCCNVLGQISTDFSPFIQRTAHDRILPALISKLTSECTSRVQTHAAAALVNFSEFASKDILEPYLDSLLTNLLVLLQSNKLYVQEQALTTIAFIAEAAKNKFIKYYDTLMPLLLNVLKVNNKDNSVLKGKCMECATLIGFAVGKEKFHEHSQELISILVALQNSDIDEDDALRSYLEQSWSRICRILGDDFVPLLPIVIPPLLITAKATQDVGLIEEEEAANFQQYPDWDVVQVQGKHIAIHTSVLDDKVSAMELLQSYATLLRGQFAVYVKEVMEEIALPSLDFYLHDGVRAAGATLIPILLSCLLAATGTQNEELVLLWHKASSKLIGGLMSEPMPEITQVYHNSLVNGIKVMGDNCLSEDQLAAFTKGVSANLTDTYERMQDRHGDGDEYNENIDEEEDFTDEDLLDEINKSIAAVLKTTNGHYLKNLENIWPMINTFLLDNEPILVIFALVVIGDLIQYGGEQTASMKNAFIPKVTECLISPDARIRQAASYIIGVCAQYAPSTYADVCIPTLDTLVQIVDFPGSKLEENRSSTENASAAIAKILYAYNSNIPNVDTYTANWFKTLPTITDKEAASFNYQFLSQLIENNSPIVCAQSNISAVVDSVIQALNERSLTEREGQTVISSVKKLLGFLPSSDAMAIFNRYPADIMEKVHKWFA

B1: yTBP (61-240) (domain or fragment, S. cerevisiae, UniProt P13393 61-240, looked up)
chain: SGIVPTLQNIVATVTLGCRLDLKTVALHARNAEYNPKRFAAVIMRIREPKTTALIFASGKMVVTGAKSEDDSKLASRKYARIIQKIGFAAKFTDFKIQNIVGSCDVKFPIRLEGLAFSHGTFSSYEPELFPGLIYRMVKPKIVLLIFVSGKIVLTGAKQREEIYQAFEAIYPVLSEFRKM
B1 gave a Kd (Kap95p) of ~10 µM and a Kd (Kap121p) of ~15 µM.
